Reference: publication doi:10.1101/2024.10.06.616194

Legend:
[1] = target: GpeC Y163A
[2] = target: GpeC R152A
[3] = target: GpeC F214A
[4] = target: GpeC R160A

Measured: catalytic (cyclization) activity of the GpeC mutant relative to the wild type

WFWMLYHHM [SGpeA2 (minimal 9-mer substrate)]
> 50%: all assays above
